Data on 1 substance can be found in patent publication US8349320.

The target in assay [1] is mouse HVEM-Fc (mouse; human) (UniProt Q80WM9). Kind of assay: flow cytometry competition, graded soluble gD against 2 µg/ml mHVEM:Fc on hLIGHT-EL4 cells (FIG. 3G). Background: Flow cytometry measures light scatter and fluorescence of single cells or particles in a stream.
In assay [2] the target is mouse HVEM expressed on cells (mouse) (UniProt Q80WM9). Kind of assay: flow cytometry competition, graded soluble gD against 1.4 µg/ml mBTLA-T on mHVEM-HEK293 cells (FIG. 3G).
mouse HVEM expressed on cells (mouse), sequence (Q80WM9 39-275): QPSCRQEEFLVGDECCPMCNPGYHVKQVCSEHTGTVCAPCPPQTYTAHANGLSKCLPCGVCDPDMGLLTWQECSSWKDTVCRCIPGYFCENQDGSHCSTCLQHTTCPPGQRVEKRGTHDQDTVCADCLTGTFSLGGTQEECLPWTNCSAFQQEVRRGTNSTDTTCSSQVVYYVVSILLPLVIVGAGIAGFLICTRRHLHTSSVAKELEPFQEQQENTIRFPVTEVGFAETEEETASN

mouse HVEM-Fc (mouse; human), sequence (Q80WM9 39-206 limits assumed): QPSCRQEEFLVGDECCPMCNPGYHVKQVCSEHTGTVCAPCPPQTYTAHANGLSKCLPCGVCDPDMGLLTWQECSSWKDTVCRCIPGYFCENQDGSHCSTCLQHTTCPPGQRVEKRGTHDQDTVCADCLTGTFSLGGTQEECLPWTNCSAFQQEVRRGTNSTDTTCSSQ

Usually Kd stands for the constant that tells how readily two partners part at equilibrium. In the case of “purified recombinant soluble gD (gD-1Δ290-299)”, the Kd in assay [1] and in assay [2] was 250 nM throughout.
